For assay [1], the target named is FcRn of the neonatal mouse intestine (mouse) (UniProt Q61559). Description: cell-based or functional assay.
Assay [2] addresses recombinant soluble mouse FcRn (mouse) (UniProt Q61559). Description: inhibition of 125I-sFcRn binding to murine IgG1-Sepharose; molar ratio of inhibitor/FcRn 1/500.
Assay [3] shares this target. Description: inhibition of 125I-sFcRn binding to murine IgG1-Sepharose; molar ratio of inhibitor/FcRn 1/1000.
For assay [4] the target is unchanged. Description: SPR (BIAcore 2000), FcRn immobilised on CM5 chip, purified Fc-hinge fragment in flow, pH 6.0. (SPR reads the build-up and loss of mass on a sensor chip optically.)

pKd: −log10 of the molar value.

Usually % inhibition stands for the change of the read-out against control, counted positive when it falls. With “murine IgG1 (complete glycosylated IgG1 molecule) (antibody)”, the Inhibition of transmission (%) in assay [1] amounted to 51.4%. Further, the % inhibition in assay [2] was 24.7%; in assay [3], 45.6%.

HN-433 mutant Fc-hinge fragment showed an Inhibition of transmission (%) in assay [1] of 44.4%.

With “Fc fragment produced by papain digestion of murine IgG1 (from UniProt P01868 98-324)”, in assay [1], the Inhibition of transmission (%) was determined as 62.5%.

For orientation: pKd means the Kd on a negative log10 scale, so that one unit is a factor of ten. Usually koff stands for the rate constant with which the complex falls apart. As a reminder, the kon is the second-order rate constant of association. For “wild type (WT) Fc-hinge fragment derived from murine IgG1”, in assay [1], the Inhibition of transmission (%) came to 55.3%. Moreover, in assay [4], the pKd was 8.13, the koff came to 0.00461 s⁻¹ and the kon came out at 620000 M⁻¹ s⁻¹. Also, in assay [2], the % inhibition is 18.4%. The % inhibition in assay [3] was 34.1%.

On to HQ-310/HN-433 mutant Fc-hinge fragment, for which the Inhibition of transmission (%) in assay [1] was determined as 5.4%. In addition, the % inhibition in assay [2] came out at 0.2%; in assay [3], 4%.

In assay [1], HQ-310 mutant Fc-hinge fragment came in with an Inhibition of transmission (%) of 8.9%.

Consider “Fc-hybrid: heterodimer of WT Fc-hinge and HQ-310/HN-433 mutant”, for which the Inhibition of transmission (%) in assay [1] was 21.5%.

The substance “bovine serum albumin (from UniProt P02769 25-607)” returned an Inhibition of transmission (%) in assay [1] of 8.9%.

The substance I-253 mutant Fc-hinge fragment had an Inhibition of transmission (%) in assay [1] of 20.2%. Further, the % inhibition in assay [2] came out at 2.3%; in assay [3], 6.5%.

(Values after EP0904107B1.)
